Results taken from doi:10.1101/2023.03.05.531154.

Biological target: Man5GlcNAc2-enriched CH505.M5.G458Y chimeric SOSIP gp140 Env trimer (HIV-1 (CH505 transmitted/founder virus) | HIV-1)
Experiment: BLI

## CH235 UCA IgG (antibody)
  Kd: 4.5 nM

## CH235.12 Fab
  Kd: 0.2 nM
